Laboratory results published in patent publication US20050058747.

Key:
[1] = biological target: Soybean agglutinin (SBA) (UniProt P05046)
[2] = test system: Soybean beta-conglycinin
[3] = test system: Soybean glycinin
[4] = biological target: T1, soybean Bowman-Birk inhibitor (UniProt P01055)
T1 sequence: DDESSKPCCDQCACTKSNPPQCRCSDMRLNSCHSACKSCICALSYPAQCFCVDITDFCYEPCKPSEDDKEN

[5] = biological target: T2, soybean Kunitz trypsin inhibitor (UniProt P01070)
T2 sequence: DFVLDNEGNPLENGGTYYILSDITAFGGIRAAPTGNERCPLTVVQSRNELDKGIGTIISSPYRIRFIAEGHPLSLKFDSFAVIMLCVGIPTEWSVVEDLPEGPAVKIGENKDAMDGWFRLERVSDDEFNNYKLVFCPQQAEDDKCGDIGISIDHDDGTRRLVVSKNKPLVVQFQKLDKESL

Sequence of Soybean agglutinin (SBA) (P05046 33-285): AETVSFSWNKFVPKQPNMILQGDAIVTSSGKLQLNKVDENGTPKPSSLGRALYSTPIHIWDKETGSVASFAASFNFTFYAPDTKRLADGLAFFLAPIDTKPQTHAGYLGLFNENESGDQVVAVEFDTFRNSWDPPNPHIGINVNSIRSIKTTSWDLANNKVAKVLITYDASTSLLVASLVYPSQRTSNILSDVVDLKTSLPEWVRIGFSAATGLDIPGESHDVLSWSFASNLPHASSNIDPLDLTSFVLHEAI

## protease from Nocardiopsis sp. NRRL 18262
[1]
  Percentage degradation of isolated soy proteins: 100%
[2]
  Percentage degradation of isolated soy proteins: 95%
[3]
  Percentage degradation of isolated soy proteins: 98%
[4]
  Percentage degradation of isolated soy proteins: 35%
[5]
  Percentage degradation of isolated soy proteins: 94%
